Measurements from the supplement of paper PMC9112550, “Optimization of the antimicrobial peptide Bac7 by deep mutational scanning” (BMC Biology, 2022).

test system: Escherichia coli TOP10; experiment: shrunken log2 fold change of peptide-encoding DNA abundance (4.5 h post-induction vs induction); higher = less antimicrobial activity (less host growth inhibition); conditions: time post-induction: 4.5 h; library: site-saturation at positions 5, 18, 19, 20
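Further: peptides expressed intracellularly from a pBAD plasmid library in pooled LB shake-flask culture, induced with 0.3% L-arabinose, DNA abundance read by NGS, three biological replicates, DESeq2 with apeglm shrinkage.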

Row | Sequence | shrunken log2 fold change
1 | RRIRVRPPRLPRPRPRPPMKPRP | -0.117
2 | RRIRKRPPRLPRPRPRPKEDPRP | 0.795
3 | RRIRRRPPRLPRPRPRPAICPRP | 0.134
4 | RRIRRRPPRLPRPRPRPKCWPRP | 0.307
5 | RRIRARPPRLPRPRPRPLKGPRP | 0.052
6 | RRIRPRPPRLPRPRPRPQHIPRP | -0.648
7 | RRIRIRPPRLPRPRPRPNNRPRP | -0.557
8 | RRIRWRPPRLPRPRPRPSHFPRP | -0.151
9 | RRIRIRPPRLPRPRPRPVVMPRP | -0.0043
10 | RRIRKRPPRLPRPRPRPRNEPRP | 0.0551
11 | RRIRVRPPRLPRPRPRPVSRPRP | 0.37
12 | RRIRIRPPRLPRPRPRPLWKPRP | 0.145
13 | RRIRRRPPRLPRPRPRPGYTPRP | 0.243
14 | RRIRLRPPRLPRPRPRPKTRPRP | 0.226
15 | RRIRYRPPRLPRPRPRPRKKPRP | -0.0257
16 | RRIRFRPPRLPRPRPRPGHAPRP | 0.192
17 | RRIRDRPPRLPRPRPRPMPRPRP | 0.26
18 | RRIRSRPPRLPRPRPRPACGPRP | 0.436
19 | RRIRQRPPRLPRPRPRPVTFPRP | -0.0496
20 | RRIRGRPPRLPRPRPRPFRWPRP | 0.053
21 | RRIRDRPPRLPRPRPRPDATPRP | 0.0857
22 | RRIRWRPPRLPRPRPRPWWLPRP | 0.162
23 | RRIRMRPPRLPRPRPRPCPQPRP | 0.0219
24 | RRIRGRPPRLPRPRPRPLDWPRP | 1.07
25 | RRIRFRPPRLPRPRPRPTVHPRP | -0.238

Row | Sequence | shrunken log2 fold change
26 | RRIRWRPPRLPRPRPRPIYWPRP | -0.208
27 | RRIRMRPPRLPRPRPRPLTRPRP | 0.608
28 | RRIRSRPPRLPRPRPRPIEEPRP | 0.0156
29 | RRIRLRPPRLPRPRPRPRHAPRP | 0.537
30 | RRIRPRPPRLPRPRPRPSMDPRP | -0.448
31 | RRIRNRPPRLPRPRPRPSMNPRP | -0.578
32 | RRIRCRPPRLPRPRPRPWKFPRP | -0.318
33 | RRIRERPPRLPRPRPRPKAMPRP | 0.282
34 | RRIRRRPPRLPRPRPRPDEGPRP | -0.00319
35 | RRIRARPPRLPRPRPRPCKAPRP | 0.125
36 | RRIRTRPPRLPRPRPRPLNVPRP | -0.0675
37 | RRIRFRPPRLPRPRPRPMVNPRP | -0.171
38 | RRIRNRPPRLPRPRPRPIAQPRP | -0.00164
39 | RRIRSRPPRLPRPRPRPKRYPRP | -0.163
40 | RRIRPRPPRLPRPRPRPWWSPRP | 0.361
41 | RRIRSRPPRLPRPRPRPEMPPRP | 0.00153
42 | RRIRMRPPRLPRPRPRPVGGPRP | 0.961
43 | RRIRTRPPRLPRPRPRPYHIPRP | -1.06
44 | RRIRWRPPRLPRPRPRPGIWPRP | 0.217
45 | RRIRFRPPRLPRPRPRPWTTPRP | -0.0381
46 | RRIRCRPPRLPRPRPRPNGMPRP | -0.398
47 | RRIRRRPPRLPRPRPRPCYGPRP | -0.214
48 | RRIRWRPPRLPRPRPRPLFEPRP | 0.25
49 | RRIRERPPRLPRPRPRPHYTPRP | -0.615
50 | RRIRERPPRLPRPRPRPWEYPRP | 0.0155

Row | Sequence | shrunken log2 fold change
51 | RRIRIRPPRLPRPRPRPCSLPRP | -0.172
52 | RRIRMRPPRLPRPRPRPLLNPRP | 0.366
53 | RRIRFRPPRLPRPRPRPCYAPRP | -0.618
54 | RRIRNRPPRLPRPRPRPSQMPRP | -0.232
55 | RRIRERPPRLPRPRPRPFFNPRP | 1.38
56 | RRIRHRPPRLPRPRPRPTRRPRP | 0.271
57 | RRIRKRPPRLPRPRPRPNFKPRP | 0.166
58 | RRIRERPPRLPRPRPRPITDPRP | -0.00102
59 | RRIRGRPPRLPRPRPRPLIFPRP | 0.404
60 | RRIRVRPPRLPRPRPRPNRAPRP | 0.202
61 | RRIRQRPPRLPRPRPRPRVQPRP | 0.527
62 | RRIRLRPPRLPRPRPRPIWCPRP | -0.0514
63 | RRIRLRPPRLPRPRPRPMNRPRP | -0.0112
64 | RRIRRRPPRLPRPRPRPFFAPRP | 0.98
65 | RRIRVRPPRLPRPRPRPMMWPRP | -0.368
66 | RRIRSRPPRLPRPRPRPYPFPRP | -0.716
67 | RRIRNRPPRLPRPRPRPYHAPRP | -0.0081
68 | RRIRFRPPRLPRPRPRPMIVPRP | -0.105
69 | RRIRKRPPRLPRPRPRPRYRPRP | -0.0384
70 | RRIRKRPPRLPRPRPRPNMIPRP | 0.0348
71 | RRIRERPPRLPRPRPRPDICPRP | -0.553
72 | RRIRWRPPRLPRPRPRPDGDPRP | 0.36
73 | RRIRERPPRLPRPRPRPDKSPRP | -1.19
74 | RRIRQRPPRLPRPRPRPSNPPRP | 0.0169
75 | RRIRSRPPRLPRPRPRPRIWPRP | 0.183

Row | Sequence | shrunken log2 fold change
76 | RRIRKRPPRLPRPRPRPRDWPRP | 0.935
77 | RRIRPRPPRLPRPRPRPQMHPRP | 0.143
78 | RRIRVRPPRLPRPRPRPIAPPRP | 0.328
79 | RRIRYRPPRLPRPRPRPKGNPRP | -0.423
80 | RRIRNRPPRLPRPRPRPTCNPRP | -0.288
81 | RRIRIRPPRLPRPRPRPLFEPRP | -0.251
82 | RRIRARPPRLPRPRPRPTRAPRP | 1
83 | RRIRYRPPRLPRPRPRPFGRPRP | -0.0018
84 | RRIRDRPPRLPRPRPRPIFLPRP | -0.205
85 | RRIRLRPPRLPRPRPRPYNHPRP | -0.669
86 | RRIRRRPPRLPRPRPRPDFHPRP | -0.111
87 | RRIRERPPRLPRPRPRPEDSPRP | 0.00699
88 | RRIRIRPPRLPRPRPRPVRAPRP | 0.172
89 | RRIRLRPPRLPRPRPRPCTRPRP | -0.0398
90 | RRIRKRPPRLPRPRPRPKPSPRP | 0.743
91 | RRIRCRPPRLPRPRPRPFAYPRP | 0.00718
92 | RRIRWRPPRLPRPRPRPHACPRP | 0.171
93 | RRIRARPPRLPRPRPRPFMWPRP | 0.065
94 | RRIRCRPPRLPRPRPRPPEFPRP | 0.0967
95 | RRIRKRPPRLPRPRPRPMVFPRP | -0.0194
96 | RRIRTRPPRLPRPRPRPQHVPRP | -0.0575
97 | RRIRLRPPRLPRPRPRPQWPPRP | 0.28
98 | RRIRDRPPRLPRPRPRPQWDPRP | 0.101
99 | RRIRKRPPRLPRPRPRPMGSPRP | 0.0567
100 | RRIRYRPPRLPRPRPRPDENPRP | -0.0185

Row | Sequence | shrunken log2 fold change
101 | RRIRSRPPRLPRPRPRPKTKPRP | 0.000308
102 | RRIRLRPPRLPRPRPRPRHLPRP | -0.818
103 | RRIRYRPPRLPRPRPRPYMTPRP | -0.271
104 | RRIRARPPRLPRPRPRPELGPRP | 1.43
105 | RRIRTRPPRLPRPRPRPVLCPRP | 0.0726
106 | RRIRERPPRLPRPRPRPDVEPRP | 0.084
107 | RRIRQRPPRLPRPRPRPEHPPRP | 0.0713
108 | RRIRGRPPRLPRPRPRPNGVPRP | -0.186
109 | RRIRSRPPRLPRPRPRPVYTPRP | -0.105
110 | RRIRARPPRLPRPRPRPMRVPRP | 0.789
111 | RRIRNRPPRLPRPRPRPCKNPRP | -0.0376
112 | RRIRCRPPRLPRPRPRPMMYPRP | -0.12
113 | RRIRSRPPRLPRPRPRPIIKPRP | 0.18
114 | RRIRCRPPRLPRPRPRPGFKPRP | -0.226
115 | RRIRFRPPRLPRPRPRPDAQPRP | 0.483
116 | RRIRRRPPRLPRPRPRPVGMPRP | 1.08
117 | RRIRVRPPRLPRPRPRPVRPPRP | 0.555
118 | RRIRDRPPRLPRPRPRPDDQPRP | 0.259
119 | RRIRQRPPRLPRPRPRPYKCPRP | -0.334
120 | RRIRARPPRLPRPRPRPEYWPRP | 0.515
121 | RRIRNRPPRLPRPRPRPHVLPRP | -0.245
122 | RRIRSRPPRLPRPRPRPVRKPRP | 0.324
123 | RRIRYRPPRLPRPRPRPPVSPRP | -0.378
124 | RRIRSRPPRLPRPRPRPVAIPRP | -0.28
125 | RRIRVRPPRLPRPRPRPFAFPRP | -0.38

Row | Sequence | shrunken log2 fold change
126 | RRIRKRPPRLPRPRPRPDDIPRP | 0.0454
127 | RRIRQRPPRLPRPRPRPQWYPRP | -0.0123
128 | RRIRVRPPRLPRPRPRPVIEPRP | 0.161
129 | RRIRPRPPRLPRPRPRPEMMPRP | 0.00381
130 | RRIRCRPPRLPRPRPRPPEGPRP | 0.926
131 | RRIRFRPPRLPRPRPRPYAKPRP | -0.552
132 | RRIRKRPPRLPRPRPRPTRWPRP | 0.413
133 | RRIRARPPRLPRPRPRPTARPRP | 0.874
134 | RRIRPRPPRLPRPRPRPCIEPRP | -0.291
135 | RRIRQRPPRLPRPRPRPYYQPRP | -0.284
136 | RRIRRRPPRLPRPRPRPKSCPRP | 0.0766
137 | RRIRIRPPRLPRPRPRPCPSPRP | -0.186
138 | RRIRWRPPRLPRPRPRPQRLPRP | 0.159
139 | RRIRYRPPRLPRPRPRPSDLPRP | -1.92
140 | RRIRERPPRLPRPRPRPKNVPRP | 0.0204
141 | RRIRVRPPRLPRPRPRPPKEPRP | 0.0261
142 | RRIRERPPRLPRPRPRPQSQPRP | 0.0662
143 | RRIRERPPRLPRPRPRPGFCPRP | -0.122
144 | RRIRVRPPRLPRPRPRPMKLPRP | -0.0169
145 | RRIRDRPPRLPRPRPRPHCRPRP | -0.123
146 | RRIRWRPPRLPRPRPRPYHRPRP | -0.201
147 | RRIRNRPPRLPRPRPRPMTHPRP | -0.405
148 | RRIRNRPPRLPRPRPRPDWVPRP | 0.134
149 | RRIRFRPPRLPRPRPRPSFMPRP | -0.393
150 | RRIRRRPPRLPRPRPRPFGLPRP | -0.0905
